Measured values: patent US20190263882A1 (Scripps Research, published 2019)
Substitutions are numbered along the chain they refer to.

B1: RLX304 (antibody, human IgG1, kappa)
heavy: DSWMEEVIKLCGRELVRAQIAICGMSTWSGGGGSGGGGQLYSALANKCCHVGCTKRSLARFCGGGGSGGGGSGGGGSGQVTLRESGPALVKPTQTLTLTCTFSGFSLSTSGMSVGWIRQPPGKALEWLADIWWDDKKDYNPSLKSRLTISKDTSKNQVVLKVTNMDPADTATYYCARSMITNAYFDVWGAGTTVTVSSASTKGPSVFPLAPSSKSTSGGTAALGCLVKDYFPEPVTVSWNSGALTSGVHTFPAVLQSSGLYSLSSVVTVPSSSLGTQTYICNVNHKPSNTKVDKKVEPKSCDKTHTCPPCPAPPVAGPSVFLFPPKPKDTLMISRTPEVTCVVVDVSHEDPEVKFNWYVDGVEVHNAKTKPREEQYNSTYRVVSVLTVLHQDWLNGKEYKCKVSNKGLPSSIEKTISKAKGQPREPQVYTLPPSRDELTKNQVSLTCLVKGFYPSDIAVEWESNGQPENNYKTTPPVLDSDGSFFLYSKLTVDKSRWQQGNVFSCSVMHEALHNHYTQKSLSLSPGK
light: DIQMTQSPSTLSASVGDRVTITCKCQLSVGYMHWYQQKPGKAPKLLIYDTSKLASGVPSRFSGSGSGTAFTLTISSLQPDDFATYYCFQGSGYPFTFGGGTKLEIKRTVAAPSVFIFPPSDEQLKSGTASVVCLLNNFYPREAKVQWKVDNALQSGNSQESVTEQDSKDSTYSLSSTLTLSKADYEKHKVYACEVTHQGLSSPVTKSFNRGEC
B2: SCX3: palivizumab(NH3, 16GS)-relaxin2(9GS) and palivizumab L (antibody, human IgG1, kappa)
heavy: B1 heavy with N182F, A183G, Y184G
light: B1 light with A69E
B3: RLX301 (antibody, human IgG1, kappa)
heavy: B1 heavy with N182F, A183G, Y184G
light: B1 light
B4: SCX2: palivizumab(NH2, 16GS)-relaxin2(9GS) and palivizumab L (antibody, human IgG1, kappa)
heavy: B1 heavy with A183G
light: B1 light with A69E
B5: SCX1: palivizumab(NH1, 16GS)-relaxin2(9GS) and palivizumab L (antibody, human IgG1, kappa)
heavy: B1 heavy
light: B1 light with A69E
B6: SC3: Palivizumab (null, 16GS)-relaxin2(9GS) and Palivizumab L (antibody, human IgG1, kappa)
heavy: B1 heavy with A183W
light: B1 light with A69E
B7: RLX306 (antibody)
heavy: B1 heavy
light: B1 light with S91N
B8: RLX305 (antibody)
heavy: B1 heavy
light: B1 light with G90Y
B9: RLX303 (antibody)
heavy: B1 heavy with N182F, A183G, Y184G
light: B1 light with S91N
B10: RLX300 (no mutations) (antibody, human IgG1, kappa)
heavy: B1 heavy with A183W
light: B1 light
notes: also called SC3.s
B11: Palivizumab null (antibody, human IgG1, kappa)
heavy: QVTLRESGPALVKPTQTLTLTCTFSGFSLSTSGMSVGWIRQPPGKALEWLADIWWDDKKDYNPSLKSRLTISKDTSKNQVVLKVTNMDPADTATYYCARSMITNWYFDVWGAGTTVTVSSASTKGPSVFPLAPSSKSTSGGTAALGCLVKDYFPEPVTVSWNSGALTSGVHTFPAVLQSSGLYSLSSVVTVPSSSLGTQTYICNVNHKPSNTKVDKKVEPKSCDKTHTCPPCPAPPVAGPSVFLFPPKPKDTLMISRTPEVTCVVVDVSHEDPEVKFNWYVDGVEVHNAKTKPREEQYNSTYRVVSVLTVLHQDWLNGKEYKCKVSNKGLPSSIEKTISKAKGQPREPQVYTLPPSRDELTKNQVSLTCLVKGFYPSDIAVEWESNGQPENNYKTTPPVLDSDGSFFLYSKLTVDKSRWQQGNVFSCSVMHEALHNHYTQKSLSLSPGK
light: B1 light with A69E
notes: also called null palivizumab antibody

The binders below were run against T1, relaxin receptor (LGR7) (assay: cell-based or functional assay).
T1 sequence (Q9HBX9 whole entry, species assumed, looked up): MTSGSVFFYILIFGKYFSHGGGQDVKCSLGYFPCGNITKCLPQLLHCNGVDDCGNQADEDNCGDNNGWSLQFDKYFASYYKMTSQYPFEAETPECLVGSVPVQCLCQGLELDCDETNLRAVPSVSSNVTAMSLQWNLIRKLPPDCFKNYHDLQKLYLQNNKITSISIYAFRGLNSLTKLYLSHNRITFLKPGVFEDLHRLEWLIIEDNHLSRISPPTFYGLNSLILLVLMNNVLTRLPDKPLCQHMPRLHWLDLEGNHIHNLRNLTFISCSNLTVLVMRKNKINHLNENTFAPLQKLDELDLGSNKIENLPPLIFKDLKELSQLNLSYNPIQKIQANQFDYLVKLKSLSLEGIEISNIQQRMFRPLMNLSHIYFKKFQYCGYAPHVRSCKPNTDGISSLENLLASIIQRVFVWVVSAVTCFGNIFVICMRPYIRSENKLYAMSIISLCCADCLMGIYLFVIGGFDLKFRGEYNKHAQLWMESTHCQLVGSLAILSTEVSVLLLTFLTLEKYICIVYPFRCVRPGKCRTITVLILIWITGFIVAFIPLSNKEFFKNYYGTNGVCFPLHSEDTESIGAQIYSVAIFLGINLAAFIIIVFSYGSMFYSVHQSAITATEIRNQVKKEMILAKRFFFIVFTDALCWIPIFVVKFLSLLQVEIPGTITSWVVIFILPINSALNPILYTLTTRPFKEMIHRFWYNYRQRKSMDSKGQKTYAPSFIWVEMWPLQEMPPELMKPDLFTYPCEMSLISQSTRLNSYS

How did the “EC50, CRE-luciferase reporter assay” value turn out when B1 was run?
Its value is 0.078 nM.

For B2, which “EC50, CRE-luciferase reporter assay” value is on record?
Its value is 0.129 nM.

How did the “EC50, CRE-luciferase reporter assay” value turn out when B3 was run?
Its value is 0.072 nM.

With B4 as the binder, how does the “EC50, CRE-luciferase reporter assay” value read?
Its value is 0.0612 nM.

Which “EC50, CRE-luciferase reporter assay” value does the source give for B5 here?
The value was 0.0691 nM.

Molecular target: T1, relaxin receptor (LGR7)
Test: cell-based or functional assay
Remark: another data set of the same source

How did the “LGR7” value turn out when B2 was run?
The value was 0.115 nM.

How did the “LGR7” value turn out when B6 was run?
Its value is 0.205 nM.

B4 was tested. Which “LGR7” value did it give?
Its value is 0.115 nM.

How did the “LGR7” value turn out when B5 was run?
The value was 0.129 nM.

Each binder was assayed against LGR8 (assay: cell-based or functional assay).
LGR8, sequence (Q8WXD0 whole entry): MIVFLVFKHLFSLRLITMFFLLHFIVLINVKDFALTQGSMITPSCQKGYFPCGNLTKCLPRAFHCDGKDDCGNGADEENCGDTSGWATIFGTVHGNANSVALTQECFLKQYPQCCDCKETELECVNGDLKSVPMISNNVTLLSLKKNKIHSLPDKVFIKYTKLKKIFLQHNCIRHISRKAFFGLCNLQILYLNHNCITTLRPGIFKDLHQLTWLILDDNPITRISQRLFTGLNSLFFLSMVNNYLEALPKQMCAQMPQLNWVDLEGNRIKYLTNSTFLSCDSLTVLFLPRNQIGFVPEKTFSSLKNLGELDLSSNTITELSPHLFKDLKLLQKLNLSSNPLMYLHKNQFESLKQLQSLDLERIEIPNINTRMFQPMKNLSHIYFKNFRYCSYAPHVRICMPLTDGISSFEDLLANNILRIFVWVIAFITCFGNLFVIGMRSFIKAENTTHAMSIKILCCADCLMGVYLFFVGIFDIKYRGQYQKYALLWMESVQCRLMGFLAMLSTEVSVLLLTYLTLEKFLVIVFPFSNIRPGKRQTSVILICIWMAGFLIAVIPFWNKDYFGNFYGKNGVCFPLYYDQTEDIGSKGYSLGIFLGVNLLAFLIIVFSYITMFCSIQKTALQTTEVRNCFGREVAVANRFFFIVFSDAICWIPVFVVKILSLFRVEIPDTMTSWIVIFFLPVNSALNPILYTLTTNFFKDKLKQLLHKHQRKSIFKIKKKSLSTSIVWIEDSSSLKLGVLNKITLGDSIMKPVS

Which “LGR8” value does the source give for B2 here?
The value was 16300 nM.

With B6 as the binder, how does the “LGR8” value read?
Its value is 177 nM.

How did the “LGR8” value turn out when B4 was run?
Its value is 327 nM.

B5 was tested. Which “LGR8” value did it give?
Its value is 939 nM.

Each binder was assayed against T2, RSV F protein (UniProt P03420 26-524) (assay: ELISA, 100 ng/well RSV F protein coated, HRP anti-human IgG (Fc specific), QuantaBlu fluorescence (10 min)).
T2 sequence (P03420 26-524): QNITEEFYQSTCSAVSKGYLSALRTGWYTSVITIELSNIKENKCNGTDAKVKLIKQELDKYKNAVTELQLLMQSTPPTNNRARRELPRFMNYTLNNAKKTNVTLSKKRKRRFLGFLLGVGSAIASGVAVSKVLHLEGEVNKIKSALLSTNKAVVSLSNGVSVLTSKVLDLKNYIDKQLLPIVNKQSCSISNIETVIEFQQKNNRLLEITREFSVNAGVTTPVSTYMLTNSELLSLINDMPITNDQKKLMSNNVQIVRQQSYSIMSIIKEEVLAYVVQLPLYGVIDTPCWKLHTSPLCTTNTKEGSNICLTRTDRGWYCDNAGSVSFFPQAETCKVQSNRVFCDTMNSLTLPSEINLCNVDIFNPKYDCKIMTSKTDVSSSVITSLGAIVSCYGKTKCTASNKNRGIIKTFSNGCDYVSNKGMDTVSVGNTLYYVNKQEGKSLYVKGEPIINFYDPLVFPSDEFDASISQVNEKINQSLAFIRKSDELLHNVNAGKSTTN
Experimental: Optimized palivizumab-relaxin fusion protein antibodies were tested for binding to RSV by ELISA assay. 100 ng/well RSV F protein was coated on 96-well plate in PBS 4° C. overnight. The plate was blocked with 2% BSA/PBS at room temperature for 1 hr, then washed twice with 200 μL PBS. The fusion antibodies were incubated at various concentrations (as indicated in FIG. 4) in 2% BSA/PBS at room temperature for 1 hr. Plates were washed with PBS (0.025% Tween-20 in PBS) four times and washed with PBS one time. […] Binding was quantified using Spectramax fluorescence plate reader with excitation at 325 nm and emission at 420 nm. Binding Kd values were determined (Table 14).

B1 was tested. Which Kd did it give?
Its Kd is 38.2 nM.

For B3, which Kd is on record?
Its Kd is 79.3 nM.

How did the Kd turn out when B7 was run?
The Kd was 82.7 nM.

With B8 as the binder, how does the Kd read?
Its Kd is 75.2 nM.

With B9 as the binder, how does the Kd read?
The Kd was 52.1 nM.

Which Kd does the source give for B10 here?
The Kd was 0.301 nM.

Each binder was assayed against T2, RSV F protein (assay: plate binding assay, RSV F protein coated, anti-human IgG (Fc specific) detection, fluorescence read at 25 min).

With B11 as the binder, how does the Kd read?
Its Kd is 0.8 nM.

Which Kd does the source give for B2 here?
The Kd was 163 nM.

Which Kd does the source give for B6 here?
Its Kd is 0.425 nM.

B4 was tested. Which Kd did it give?
The Kd was 14.4 nM.

With B5 as the binder, how does the Kd read?
Its Kd is 112 nM.

These binders were tested against T2, RSV F protein (assay: plate binding assay, RSV F protein coated, anti-human IgG (Fc specific) detection, fluorescence read at 50 min).

With B11 as the binder, how does the Kd read?
Its Kd is 0.49 nM.

With B2 as the binder, how does the Kd read?
The Kd was 107 nM.

Which Kd does the source give for B6 here?
Its Kd is 0.249 nM.

Which Kd does the source give for B4 here?
Its Kd is 9.03 nM.

With B5 as the binder, how does the Kd read?
The Kd was 83.1 nM.
